From a protein production outcome set (Wang et al. 2014)

Assay: label from the status in PepcDB records

| Sequence | protein production |
| --- | --- |
| MAWHAAEDRSLGFKETYLMQRFGAGVVIDDFELVEKLPSGGMASLWRATNPRYDFPLVLKIPFLDPGADVSVILGFEAEELILKRLSGPHVPRFAASGSLAQVPYIAMEFVVGKGLADIVGNAPLPMDEVARIGIEIATALAALHRQKVVHLDLKPENVVLANRGAVLLDFGLARHEELPDFLGAESSVPMGTAAYISPEQVLGERSDPASDLFALGCILFQLATGEEPFGRPATLAGMKRRLYHAPRSPRDINDAIPRWLEAIILKCMEVDRSQRYIEAAHILSDLRSPDQVVVAKRKPRNEGGWAAITSLFRKTDDRSLVGRASSTRTQAGPSIVLAAVDLANGTDALAGEVLNETARVLASREDSWLACVTVLRTEIIGDTPATDETGRSVYLKRLVALKDWAYPLHLPEDRISYHVLEAVSPADAILTYAEHNDVGHIVVGARASSAIRRHLGSVSTKVVAQALCSVSVVRLKAVEEQQRRPL | failed |
| PCYDNTFANTCAECQQLIGHDSRELFYEDRHFHEGCFRCCRCQRSLADEPFTCQDSELLCNDCYCSAFS | not failed |
| MNIVTLLGSPRSRGISAAIAARFTDTAAGLGAQTRTFELNRLAYRGCQGCYACKKTLDHCVLTDDLAQVLDAVRGADVVVLASPVYYGDVTAQLKGFIDRTFSYLKPDYLSNPQPSRLSPKKLVFVLTQGHPDEGMFADIFPRYEGFLTWLGFVDARLIRACGFGPSTVDKVPEQYLREAEQAAREIVGQGKG | failed |
| MSDMFLPARMRKLKIITLDQYSDSVVRSLHEEGVTQIDDISERIQQDAEWRQILKPSRATPYTGRVSSLLMKTSGILDFLGSVAAEEKGLRDTIREFINPPIFEKREVEELDTESLIERAEETLGRVESETRVMEEKLNELDSERSAVESSLSVAEKLKDFDIDFSDLQDSEYITGIAGRITAENLPELRDKLADITDELVISDREGENKAERILIIVTLKKHADSIASVLRRMEFERFEISELQGRPSEIISSSKTRLEEISRERKEIISKLRDINAEWEDELLVLREQLEIEKERNEVFSLFGETRKTVMLEAWVPLKEADRVIAVVEESSEGTALTDLEDPDPEEVPVLLDNPRFAKPYETFVEMYSPLKYNEIDPTIFMAFVFPFFFGFCLTDAGYGIIDALIGFILYRGLGKVNNFMRNFGIIMMSCGVWAFILGMVTNGFIGDFFPRFFNITLPTVIPAIDAFVNPQNILIMALTVGVLHINFGLILGARNNIRLGNMREALGSQIVWLILELGIILYLVGGMIFGAPLIILAFAMLLYYNGLFGLMDVSGFLGTLLSYARLLALCLSTGGIAMTVNILTGLSYEMIPVIGVVLAPIIFVFGHIANNAFQSLGAFINSLRLHYVEFFAQFYMGGKNKFNAFRAERNFTKIRR | failed |
| MSLAPYRVDFILLEHFSMASFTVAMDVLVTANLLRADSFQFTPLSLDGDRVLSDLGLELVATELSAAALKELDLLVVCGGLRTPLKYPELDRLLNDCAAHGMALGGLWNGAWFLGRAGVLDDYGCSIHPEQRASLSERSPQTRITPASFTLDRDRLSAASPNGAMELMLGLVRRLYGDGLAEGVEEILSFSGAREGHHHHHH | not failed |
| MLFISATNTNAGKTTCARLLAQYCNACGVKTILLKPIETGVNDAINHSSDAHLFLQDNRLLDRSLTLKDISFYRYHKVSAPLIAQQEEDPNAPIDTDNLTQRLHNFTKTYDLVIVEGAGGLCVPITLEENMLDFALKLKAKMLLISHDNLGLINDCLLNDFLLKSHQLDYKIAINLKGNNTAFHSISLPYIELFNTRSNNPIVIFQQSLKVLMSFALK | not failed |
| MQCNVCEFGCEIDEYSRGRCRTYVCTGDTIIQDPDMGYLGAYPVSIETIPLLHYYPSGKFLQVFGTGCNFQCSGCVARLLASGKSLSSTTLTPSQVVEKALQQDCLGVVSTLNEPAANYYLFRDLAVQAKEKGLLVGCSTNCYFTEETLNKLGQLVDFMNVGIKGYSDRSYISCGVPSSAPVFRNISLLFDMGVHVETSVVYSRGNEADVIKVAEAVSDISPTIPVQVMRFIPFGDAPIELEPSVGEAESLCADLRKYVDYVYLFNSPGTELLNTYCPECGSLLAEREFYGPMGSRPVRPWITYSCDCGKTVPVKGTTAVERFNEEGFMGGYRISRAFGMVHGVLTCLGILDDSRLIDVWREISDSGTLMKVHHMIQQPYAYLDFVRLIAERANMPEKGEELISFIHTRLELVKSLAAENSGHKVYYCMGSPLFALNAGRMENNLVAFSGGLSINKQLQKEGKPGINVSPSFINENNPDTIFISGFLSRPLDEFYTLCRQYGIETDAVKQQRVYEVPPSWDFGNPRWILGLMYIADKLYPGNSGIDLEKEADEFYRQFYGMPYLEHHHHHH | not failed |
| MAAGFFQAEMSILSSTLARSYSLPIRKTLMTFDFRIAMQRNPCLRIRRSCVAAFSSTPSHSRNFPIRGLEDVFVGYLFGRKKATEVAHVVWEQVIQKGDTVIDATCGNGNDTLAMLKMVMHDSVGCGGYVYAMDIQKDAIESTSSLLDQAVGSKEKECVKLFNLCHSKMGEIVPENARVRMVAFNLGYLPGGNKSIITLSDTTLSALKAAERILKPGGLISLVVYIGHPGGREELEVVEAFGSGLPVSDWICCKFQMLNRPLAPVLVFMFKREN | failed |
| MTMSPSQDQTENTDMLTEIAILYYQEGATQEEISKKFGLSRAKVGRMLRKAREEGIVEITVKFHPVYSVQLEQKLVEKFNLKRALISLDQPNTNEQRKQVAALVSSYLNNNLQEGMAVAVGQGQNVAAVADHAGIVTQRNARFVSAIGGTHRSGDIINADHICRRLAKKYGGSSETLYAPAYVNDPSLRSAFMEHATIKETLSQARKAEFALVGIGDMDENSHMVKLGFFTPKEFVEARLNDGIVGDIGGFDFFKLDGTDADTLMRGRVIGLEMEDLRQIPNVVAMASESRKALSIMGALRTGVIDVLATSVSCAMALLNLAENEE | not failed |
| MNEYLQAVLMILLTIVLYYVSKKIQDKYNNPLLNPALIASIAIIIVLLVCGVSYKGYMKGGTWINHVLNATVVCLAYPLYQNKKKIKKYLTIIFTSVLTGVVLNFVLVFTTLKIFGYSKDTIVTLLPRSITAAVGIEVSQELGGTDTITVLFIITTGLIGSILGSMLLRMGGFKSSIARGLTYGNASHAFGTAKALELDIESGAFSSIGMILTAVISSVLIPVLILLFY | failed |
| MEKADIEAIFARSRFISAMNLEILDIDHAGSRFSVRMPLQDTYERGAPGTKQFHGGALAALIDVVGDFAIGMLVGGGVPTMNLRIDYLRPAVGDYVDGVAVVRKAGKSAAVVDIDILCPAGKLVAIGRGTYVPITGLEHHHHHH | failed |
| MRRENTKSNIDFKSIFDSLPDLYLLLDRDFNIVGVSDAYLQATMVSRKQILGKNVFDAFPDNPNDPKATGAKNLYASLLRVLKNKSADTMAIQKYDIQRPADRGGGFEERYWSPINTPVLGADQEVEYIIHRVEDVT | failed |
| MTQDGTNILILGSDQRVTQGSTDARTDTIMVVNVGNHAKKIKMVSFMRDTLINIPGYSYNDNSYDLKLNSAFNLGEQEDHHGAEYVRRALKHNFDIDIKYYVMVDFETFAEAIDTLFPNGVKIDAKFATVGGVAVDSVEVPDDLRMKNGVVPNQTIEVGEQRMDGRTLLNYARFRKDDEGDFGRTVRQQQVMSAVMSQIKDPTKLFTGSAAIGKIYALTSTNVSFPFVVKNGVSVLGSGKNGVEHVTIPENGDWVDEYDMYGGQALYIDFDKYQKTLAKLGLRLEHHHHHH | not failed |
| MLRGVAALVVYKGKPALAEEKGGRLELTLEGGARQRVRPKDVLFLHPGPASLDLKVPEGEEEAAWELLEGQTVSLRELAELVYGAYTPEAALGAYLLAQKGERFVLEGEGVRARTREELLALQEAERKRAERERAFQEALKRLKEGSPAPEDRPLLAEVEALARGERKESPVLRALNLPETPEAAHAFLLRLGLWQRENPHPRRLGLPLQPPDLPVPPLPEEDRVDLTHLPAFAIDDEGSQDPDDAVFAEKVEGGFRLFVHVADVAALVPPKSPLDEEALRRGANLYLPEGTVPMLPPAVTEALGLGLREVSPALTFELWVSEEGELLEERVYPSWVRVTRLTYREALGVEALRPLEALAEAFRAKRLAAGALEIALPEVKVRVEGEEVRITPLPPYPSRVWVREAMLLAGYAAAHLAVREGLPFPFATQEAPARRVEGEGLAAMWEQRKALKRAQLKAVPAPHKGLGLPLYAQVTSPLRRYLDLVAHQQLRAWLKGERPLSQAEVLERVGAAEAVADLVREAERKSKLHWTLLHLEAKGYEGPGVLVERRGGQGVFLLPELGLTAQVALPKALPLNAEARLRFLEADLPALEARFALV | failed |
| MQLSGRSSSGLGRAGQLLRRPEVLAFLPALSLLAYWLGGERALVFVALGLPLFYATVGAFRPAAPSVTPDGLALRPQVIASLDRVLQDRESTGRTTACLVLQFDGMDKLLDRHGRATQSEVLARCCDRLCSTLREGDTVARLEGGGLAVALHPVRRLDLQSVVLLAGRLQTAIAAPISVEGTRIHVTCSIGFCLAERTPAPTGRALLDAAQMAADEASRNGPGAVRAYALGMSRNRADRDADRGLLETALDTGQFTGWFQPQIRTEDGAIGGFEVLSRWQHPERGLLLPQDFLPAIERAGLSERLGEVMLFQALTALRHWDRAGLCVPCVAVNFSATDLRNPRLVDRLKWELDRFELTPARLSVEILETVVAEGASDVVVHNIAGLSACGFGVDLDDFGTGHASITTIRRFALRRLKIDRSFVTRADSDAAQRTMLAAIISMARQLGLETLAEGVETPGELATLTALGCGYLQGYAIARPMPLSDATAWLENRRVRLPLAARCATPGS | failed |
| WRGIRQRKLHAEELLRLAMAHLRNQGKPVRIVDIAAGHGRYILESLRGVEPLPESILLRDYSDINVRDGSLLIEQKDLEDIARFVKGDAFDRNDLATLDPKPTLAVVSGLYELFSSNQMVGDSLAGLAAAVEPGGYLVYTGQPWHPQLELIARALTSHREGQAWVMRRRSQSEMDQLVEAAGFRKITQRVDEW | failed |
| MEFAPRSVVIEEFIDTLEPMMEAYGLDQVGIFEEHGEGNRYYVGYTINKDDEMITIHMPFVKNERGELALEKQEWTVRKDGREKKGFHSLQEAMEEVIHS | not failed |
| MAPEMNNKLSYGEKKRAYVTFLAGTGDYVKGVVGLAKGLRKTKSKYPLVVAVLPDVPADHRRQLLDQGCVIKEIQPVYPPDNQTQFAMAYYVLNYSKLRIWKFVEYSKLIYLDGDIQVFENIDHLFDLPDGNFYAVKDCFCEKTWSHTPQYKIGYCQQCPDKVTWPESELGPKPPLYFNAGMFVYEPSLPTYYNLLETLKVVPPTPFAEQDFLNMYFKDIYKPIPPVYNLVLAMLWRHPENIELNEAKVVHYCAAGAKPWRFTGQEGNMEREDIKMLVEKWWDIYNDESLDYKNFNVHCGQKEDVHRKPKTLPQFFTDLSEADVLQCAKAPSAA | failed |
| MSPLILMITAGAGIALLLFLVLKYKFQPFVALMLVSILVALVAGVKPAELVATIEGGMGKTLGHIAIIIALGAMIGRIIELSGGAEALAKTLIERFGNRRTPLALTMAGFIIGVPVFFEVGVIILMPLAYGVARSARKPLLVFALPMCAALLTVHAFLPPHPGAVAAASQLGADLGRVLMFGLPLTALLCYVGYRVAGRMTRRNYPMTDDIRAEVYGPHVTNEDLAAWNNGSEQPASPQAVAAVAHMGLEESTGSLAAKLPPAPPPGFGLIVSLILLPIVLILLGTLATSLLPLESTLRGVLTVLGAPLVALLLDTLLCAWLLGSRRGWSRSQVSDVIGSALPGVAMVILIAGAGGVFGKVLVDTGIGAVVSDLLRTTGLPVLALGFLLTMLLRAVQGSTTVALVTTAGIIAPLIATLNLSPNHMALLCLAMGGGGLAMSHINDAGYWIFTKLAGLNVADGLRTWTVITTLLGTLGFCITLLIWPFV | failed |
| MGVNMRAETESRIFSVDEYVRPSNGEPIRSVVLETNDSVVVVWHAHPGQEIASHVHPHGQDTWTVISGEAEYHQGNGIVTHLKAGDIAIAKPGQVHGAMNSGPEPFIFVSVVAPGNAGFALAEK | not failed |
